Assay results from US20250236669A1 (BIRD ROCK BIO, published 2025).
Positions count from the first letter of the chain named.

Assays:
[1] = target: T1, mouse CB1 (on TRex-CHO cells) (mouse, UniProt P47746 1-473); assay: flow cytometry on cells expressing mouse CB1
T1 construct: whole, on cells; also called TRexCHO Mouse CB1

[2] = target: T2, human CB2 (on TRex-CHO cells) (human, UniProt P34972 1-360); assay: flow cytometry, mean fluorescence intensity against antibody concentration, TRex-CHO human CB2 cells
T2 construct: whole, on cells; also called TRexCHO Human CB2; CB2 expression cell line

[3] = target: T1, mouse CB1 (on TRex-CHO cells); assay: flow cytometry, mean fluorescence intensity against antibody concentration, TRex-CHO mouse CB1 cells
[4] = target: T3, native full length human CB1 receptor (TRex-CHO A156 cells) (human, UniProt P21554 1-472); assay: cell-based or functional assay
[5] = target: T3, native full length human CB1 receptor …; assay: cell-based or functional assay; remark: listed apart in the source
[6] = target: T3, native full length human CB1 receptor …; assay: cell-based or functional assay; remark: listed apart in the source
[7] = target: T3, native full length human CB1 receptor …; assay: cell-based or functional assay; remark: listed apart in the source
[8] = target: T3, native full length human CB1 receptor …; assay: cell-based or functional assay; remark: listed apart in the source
[9] = target: T3, native full length human CB1 receptor …; assay: cell-based or functional assay; remark: listed apart in the source
[10] = target: T3, native full length human CB1 receptor …; assay: cell-based or functional assay; remark: listed apart in the source
[11] = target: T3, native full length human CB1 receptor …; assay: cell-based or functional assay; remark: listed apart in the source

T2 sequence (P34972 whole entry): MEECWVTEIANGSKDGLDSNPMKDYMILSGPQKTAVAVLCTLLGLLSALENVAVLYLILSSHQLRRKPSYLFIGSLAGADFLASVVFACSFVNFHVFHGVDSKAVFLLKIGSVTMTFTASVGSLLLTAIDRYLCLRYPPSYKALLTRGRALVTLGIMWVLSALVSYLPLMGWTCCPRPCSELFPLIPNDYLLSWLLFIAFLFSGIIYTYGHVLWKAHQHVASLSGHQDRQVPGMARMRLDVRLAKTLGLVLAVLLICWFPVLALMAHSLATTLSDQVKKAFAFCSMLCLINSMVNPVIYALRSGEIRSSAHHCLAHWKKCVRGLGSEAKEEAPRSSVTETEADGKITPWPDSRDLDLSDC
T1 sequence (P47746 whole entry): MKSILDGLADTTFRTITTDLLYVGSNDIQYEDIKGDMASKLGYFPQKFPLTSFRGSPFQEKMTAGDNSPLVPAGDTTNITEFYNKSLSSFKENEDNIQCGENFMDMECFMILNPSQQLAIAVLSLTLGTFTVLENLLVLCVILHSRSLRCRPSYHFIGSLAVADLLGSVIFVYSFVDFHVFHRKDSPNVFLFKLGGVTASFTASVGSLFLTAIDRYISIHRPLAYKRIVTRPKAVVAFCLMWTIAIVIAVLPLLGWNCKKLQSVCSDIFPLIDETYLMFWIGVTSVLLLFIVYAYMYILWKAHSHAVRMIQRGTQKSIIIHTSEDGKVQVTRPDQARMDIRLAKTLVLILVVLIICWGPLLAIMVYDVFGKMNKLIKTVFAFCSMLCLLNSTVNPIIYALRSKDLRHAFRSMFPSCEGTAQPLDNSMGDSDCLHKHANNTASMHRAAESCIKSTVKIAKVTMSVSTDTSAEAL
T3 sequence (P21554 whole entry): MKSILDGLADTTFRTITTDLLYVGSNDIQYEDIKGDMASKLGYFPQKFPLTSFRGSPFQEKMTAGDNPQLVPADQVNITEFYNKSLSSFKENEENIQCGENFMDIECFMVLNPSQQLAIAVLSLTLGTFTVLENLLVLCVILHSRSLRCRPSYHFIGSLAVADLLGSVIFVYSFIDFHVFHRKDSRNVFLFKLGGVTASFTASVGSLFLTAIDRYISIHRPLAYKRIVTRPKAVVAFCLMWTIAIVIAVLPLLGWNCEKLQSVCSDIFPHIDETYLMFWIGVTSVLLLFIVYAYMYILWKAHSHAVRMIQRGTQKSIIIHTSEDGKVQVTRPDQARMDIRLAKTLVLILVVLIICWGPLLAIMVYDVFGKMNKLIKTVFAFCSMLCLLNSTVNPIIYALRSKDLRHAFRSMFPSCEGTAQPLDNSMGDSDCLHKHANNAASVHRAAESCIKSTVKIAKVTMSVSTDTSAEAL

B1: 36E12B6C2 IgG (antibody, V domains shown)
VH: QVQLQQSGAELVRPGSSVKISCKASGYEFSYYWMNWVKQRPGQGLQWIGQIYPGDGDTNYNGKFKGKATLTADKSSSTAYMHLTSLTSEDSAVYFCARSGGNPFAFWGQGTLVTVSA
VL: DIQMTQTSSSLSASLGDRVTFSCRASQDISNYLNWYQQKPDGTVKLLIYYTSRLHSGVTSRFRGSGSGTDYSLTISNLEQEDVATYFCQQGHTLPWSFGGGTKLEIKR
notes: Hybridoma-derived
binding result [1]: no binding

B2: P1C4-h2-IgG1 (antibody)
heavy: not shown
light: EIVLTQSPATLSLSPGERATLSCRASQSVSSSYLHWYQQKPGQAPRLLIYSTSNLASGIPARFSGSGSGTDFTLTISRLEPEDFAVYYCHQYHRSPPTFGQGTKVEIKRTVAAPSVFIFPPSDEQLKSGTASVVCLLNNFYPREAKVQWKVDNALQSGNSQESVTEQDSKDSTYSLSSTLTLSKADYEKHKVYACEVTHQGLSSPVTKSFNRGEC
binding result [2]: no binding (tested: about 300 nM) | binding result [3]: no binding (tested: about 300 nM)

B3: P1C4-h4-IgG1 (antibody)
heavy: not shown
light: B2 light
notes: also called P1C4-H4 (YENG); P1C4-H4 (YENG)-IgG
binding result [2]: no binding (tested: about 300 nM) | binding result [3]: no binding (tested: about 300 nM)

B4: P1C4-H4-IgG4 (antibody)
heavy: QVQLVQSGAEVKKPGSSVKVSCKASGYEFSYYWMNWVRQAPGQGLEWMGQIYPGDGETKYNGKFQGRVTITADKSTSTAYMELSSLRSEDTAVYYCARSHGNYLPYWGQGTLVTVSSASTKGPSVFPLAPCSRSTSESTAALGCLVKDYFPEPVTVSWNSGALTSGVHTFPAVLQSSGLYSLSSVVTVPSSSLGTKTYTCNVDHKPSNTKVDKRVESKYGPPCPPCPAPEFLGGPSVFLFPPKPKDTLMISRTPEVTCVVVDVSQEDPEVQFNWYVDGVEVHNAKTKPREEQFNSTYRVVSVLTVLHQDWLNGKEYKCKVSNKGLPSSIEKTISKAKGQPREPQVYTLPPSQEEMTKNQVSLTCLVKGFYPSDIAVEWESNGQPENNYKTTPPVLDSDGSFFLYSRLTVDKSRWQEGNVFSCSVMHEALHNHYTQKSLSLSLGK
light: B2 light
IC50, cAMP activity; after dialysis to pH 3 and 48 h at 40 C [4]: 139 nM | IC50, cAMP activity; after dialysis to pH 9 and 48 h at 40 C [4]: 64 nM | IC50, cAMP antagonist assay; after 5 freeze/thaw cycles [5]: 32 nM | cAMP IC50, antagonist assay; CHO-S batch [n] [6]: 51 nM | cAMP IC50, antagonist assay; Mean of Batch 1 [n] [6]: 54 nM | cAMP IC50, antagonist assay; Mean of Batch 2 [n] [6]: 54 nM | IC50, potency (cAMP); at 4 C for 33 days [7]: 62 nM | IC50, potency (cAMP); at 40 C for 33 days [7]: 71 nM

B5: P1C4-h0-IgG1 (antibody, V domains shown)
VH: QVQLVQSGAEVKKPGSSVKVSCKASGGTFSYYWMNWVRQAPGQGLEWMGQIYPGDGETKYAQKFQGRVTITADKSTSTAYMELSSLRSEDTAVYYCARSHGNYLPYWGQGTLVTVSS
VL: EIVLTQSPATLSLSPGERATLSCRASQSVSSSYLHWYQQKPGQAPRLLIYSTSNLASGIPARFSGSGSGTDFTLTISRLEPEDFAVYYCHQYHRSPPTFGQGTKVEIKR
IC50, cAMP functional assay, native human CB1 TRex-CHO cells [8]: 146 nM | binding result [2]: no binding (tested: about 300 nM) | cAMP IC50, antagonist assay; Mean of Batch 1 [n] [6]: 158 nM | cAMP IC50, antagonist assay; Mean of Batch 2 [n] [6]: 343 nM | binding result [3]: no binding (tested: about 300 nM)

B6: PA2LR3-P6G7 (chimeric) (antibody, human IgG1, kappa, V domains shown)
VH: EVQLQQSGAELVRPGSSVKISCKASGFAFSNYWMNWVKQRPGQGLEWIGQIYPGDGDTNFNGKFKGRAILTADISSNTAYMQLSSLTSEDSAVYFCARSHGNYFPYWGQGTLVTVSA
VL: DIVLTQSPAIMSASLGERVTMTCTASSSVSSSYLHWYQQKPGSSPKLWIYSTSNLASGVPARFSGSGSGTSYSLTISSMEAEDAATYYCHQHHRSPPTFGAGTKLELKR
EC50, cAMP agonist functional assay, CB1 TRex CHO cells [9]: > 300 nM

B7: PA2LR3-P2D3 (chimeric) (antibody, human IgG1, kappa, V domains shown)
VH: B6 VH with F27Y, N31Y, F60Y, R67K, I69T, I74K, N77S, N102S, P105A
VL: DIELAQSPASLAVSLGQRATISCRASESVDSYGNSFMHWYQQKPGQPPKLLIYLASNLESGVPARFSGSGSRADFTLTIDPVEADDAATYYCLQYASSPPTFGAGTKLEIKR
EC50, cAMP agonist functional assay, CB1 TRex CHO cells [9]: > 300 nM

B8: PA2LR3-P4B1 (chimeric) (antibody, human IgG1, kappa, V domains shown)
VH: B6 VH
VL: B6 VL with D1Q, H92Y, P97L
EC50, cAMP agonist functional assay, CB1 TRex CHO cells [9]: > 300 nM

B9: PA2LR3-P6B12 (chimeric) (antibody, human IgG1, kappa, V domains shown)
VH: B6 VH with F27Y, N31Y, F60Y, R67K, I69T, I74K, N77S, P105A
VL: B6 VL with D1Q, H92Y, P97L, T98A
EC50, cAMP assay in the presence of CP55940, CB1 TRex CHO cells [9]: ~1000 nM

B10: P1C4-h2 Fab (Fab, V domains shown)
VH: B5 VH with G27Y, T28E
VL: EIVLTQSPATLSLSPGERATLSCRASQSVSSSYLHWYQQKPGQAPRLLIYSTSNLASGIPARFSGSGSGTDFTLTISRLEPEDFAVYYCHQYHRSPPTFGQGTKVEIK
IC50 (read off the curve) [10]: ~30 nM | IC50 cAMP assay (Fab), CB1 TRex CHO cells [11]: 52 nM

B11: P1C4-h4 Fab (Fab, V domains shown)
VH: B5 VH with G27Y, T28E, A61N, Q62G
VL: B10 VL
IC50 (read off the curve) [10]: ~40 nM | IC50 cAMP assay (Fab), CB1 TRex CHO cells [11]: 43 nM
